Source: the supplement of paper PMC10065799, “High-throughput profiling of sequence recognition by tyrosine kinases and SH2 domains using bacterial peptide display” (eLife, 2023)

Assays:
SHP2-C SH2 = assay: SH2 binding enrichment of the phosphorylated peptide, bacterial display (enrichment ratio); higher = better substrate or ligand; peptides without Tyr show the background
Grb2 SH2 = Grb2 SH2 (UniProt P62993); assay: as above
c-Src SH2 = assay: as above
Fyn = Fyn (UniProt P06241); assay: phosphorylation enrichment, bacterial display (enrichment ratio); higher = better substrate or ligand; peptides without Tyr show the background
Fer (mouse) = assay: as above
MERTK = MERTK (UniProt Q12866); assay: as above
Hck = Hck (UniProt P08631); assay: as above
c-Src = assay: as above
FGFR3 = FGFR3 (UniProt P22607); assay: as above
EPHB2 = EPHB2 (UniProt P29323); assay: as above
FGFR1 = FGFR1 (UniProt P11362); assay: as above
AncSZ = assay: as above
Fes = Fes (UniProt P07332); assay: as above
EPHB1 = EPHB1 (UniProt P54762); assay: as above
Jak2 = Jak2 (UniProt O60674); assay: as above
c-Abl (mouse) = assay: as above
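Throughout, for SH2 binding enrichment of the phosphorylated peptide, bacterial display: peptide library displayed on the E. coli surface as eCPX fusions, selected cells deep-sequenced, score is each peptide's frequency after selection divided by its frequency in the input.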
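Throughout, for phosphorylation enrichment, bacterial display: 11-residue human phosphosite peptides and single-mutation variants displayed on the E. coli surface, counted by deep sequencing, each peptide's frequency after selection divided by its frequency in the unselected input library; frequency after pTyr selection over input frequency; kinase dosed for 20-30% of maximal phosphorylation in three min.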

EPHB1, sequence (P54762 whole entry, looked up): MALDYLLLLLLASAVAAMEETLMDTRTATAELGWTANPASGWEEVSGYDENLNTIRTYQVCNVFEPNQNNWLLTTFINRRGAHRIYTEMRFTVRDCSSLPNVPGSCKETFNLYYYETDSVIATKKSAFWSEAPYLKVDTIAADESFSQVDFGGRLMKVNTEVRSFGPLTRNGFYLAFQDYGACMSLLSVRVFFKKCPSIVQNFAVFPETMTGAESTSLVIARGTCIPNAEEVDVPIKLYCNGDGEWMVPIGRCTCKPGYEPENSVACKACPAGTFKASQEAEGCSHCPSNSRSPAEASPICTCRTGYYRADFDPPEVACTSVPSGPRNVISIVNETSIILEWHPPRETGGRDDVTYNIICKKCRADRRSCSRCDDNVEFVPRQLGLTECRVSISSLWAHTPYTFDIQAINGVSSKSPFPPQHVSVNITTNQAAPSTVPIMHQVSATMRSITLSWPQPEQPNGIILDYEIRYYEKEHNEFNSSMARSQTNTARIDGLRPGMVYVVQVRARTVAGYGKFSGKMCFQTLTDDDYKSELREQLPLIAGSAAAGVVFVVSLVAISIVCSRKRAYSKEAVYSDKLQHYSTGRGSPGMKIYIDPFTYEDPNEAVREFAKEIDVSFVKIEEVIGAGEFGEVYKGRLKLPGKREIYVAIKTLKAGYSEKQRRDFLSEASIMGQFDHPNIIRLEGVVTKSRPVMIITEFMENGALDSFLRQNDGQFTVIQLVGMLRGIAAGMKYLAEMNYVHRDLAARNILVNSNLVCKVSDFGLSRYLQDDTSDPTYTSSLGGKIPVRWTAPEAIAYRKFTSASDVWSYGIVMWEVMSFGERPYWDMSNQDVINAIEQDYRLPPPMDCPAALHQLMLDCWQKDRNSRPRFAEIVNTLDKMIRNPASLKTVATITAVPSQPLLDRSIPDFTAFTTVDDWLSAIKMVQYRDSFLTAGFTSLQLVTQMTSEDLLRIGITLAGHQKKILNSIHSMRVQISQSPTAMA
Hck, sequence (P08631 whole entry, looked up): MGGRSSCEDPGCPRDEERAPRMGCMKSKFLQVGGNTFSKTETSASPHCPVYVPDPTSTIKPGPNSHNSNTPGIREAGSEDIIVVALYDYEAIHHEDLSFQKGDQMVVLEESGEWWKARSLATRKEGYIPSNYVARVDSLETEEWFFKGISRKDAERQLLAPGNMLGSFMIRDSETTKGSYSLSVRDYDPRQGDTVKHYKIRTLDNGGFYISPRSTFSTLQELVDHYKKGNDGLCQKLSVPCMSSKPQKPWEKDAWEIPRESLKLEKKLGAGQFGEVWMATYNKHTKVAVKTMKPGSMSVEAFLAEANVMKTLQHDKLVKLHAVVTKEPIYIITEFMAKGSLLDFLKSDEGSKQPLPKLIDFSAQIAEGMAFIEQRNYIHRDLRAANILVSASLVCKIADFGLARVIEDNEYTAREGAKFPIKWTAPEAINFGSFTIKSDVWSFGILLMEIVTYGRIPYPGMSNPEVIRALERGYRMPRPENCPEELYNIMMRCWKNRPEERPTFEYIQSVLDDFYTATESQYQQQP
Jak2, sequence (O60674 whole entry, looked up): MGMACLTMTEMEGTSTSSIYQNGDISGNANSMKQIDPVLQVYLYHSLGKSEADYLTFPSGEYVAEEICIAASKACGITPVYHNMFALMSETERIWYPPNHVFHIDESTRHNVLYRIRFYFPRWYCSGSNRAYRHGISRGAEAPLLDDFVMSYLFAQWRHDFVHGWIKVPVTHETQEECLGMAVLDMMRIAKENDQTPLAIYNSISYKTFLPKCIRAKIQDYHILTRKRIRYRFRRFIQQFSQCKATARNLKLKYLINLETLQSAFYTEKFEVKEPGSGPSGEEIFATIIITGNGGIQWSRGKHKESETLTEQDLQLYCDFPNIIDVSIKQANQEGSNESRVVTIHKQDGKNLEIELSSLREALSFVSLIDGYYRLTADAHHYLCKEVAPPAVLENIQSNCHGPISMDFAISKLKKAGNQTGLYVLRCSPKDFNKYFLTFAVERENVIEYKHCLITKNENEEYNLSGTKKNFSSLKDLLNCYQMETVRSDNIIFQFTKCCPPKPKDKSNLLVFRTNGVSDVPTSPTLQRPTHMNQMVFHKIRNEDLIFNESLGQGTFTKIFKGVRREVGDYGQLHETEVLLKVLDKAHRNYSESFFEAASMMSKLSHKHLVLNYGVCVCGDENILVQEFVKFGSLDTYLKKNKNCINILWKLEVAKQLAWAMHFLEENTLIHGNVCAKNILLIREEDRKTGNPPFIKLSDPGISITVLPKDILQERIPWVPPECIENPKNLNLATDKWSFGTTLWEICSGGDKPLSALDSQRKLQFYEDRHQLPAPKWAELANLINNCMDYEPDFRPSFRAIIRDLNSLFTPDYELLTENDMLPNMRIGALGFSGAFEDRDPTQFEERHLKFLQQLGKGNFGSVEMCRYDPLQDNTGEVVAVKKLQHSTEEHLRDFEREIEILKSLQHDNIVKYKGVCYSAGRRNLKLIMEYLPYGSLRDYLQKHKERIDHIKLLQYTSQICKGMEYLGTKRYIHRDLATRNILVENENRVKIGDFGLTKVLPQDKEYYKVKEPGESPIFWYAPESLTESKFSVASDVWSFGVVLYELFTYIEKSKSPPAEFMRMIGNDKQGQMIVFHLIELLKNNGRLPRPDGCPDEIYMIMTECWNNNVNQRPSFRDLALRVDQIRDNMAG
FGFR1, sequence (P11362 whole entry, looked up): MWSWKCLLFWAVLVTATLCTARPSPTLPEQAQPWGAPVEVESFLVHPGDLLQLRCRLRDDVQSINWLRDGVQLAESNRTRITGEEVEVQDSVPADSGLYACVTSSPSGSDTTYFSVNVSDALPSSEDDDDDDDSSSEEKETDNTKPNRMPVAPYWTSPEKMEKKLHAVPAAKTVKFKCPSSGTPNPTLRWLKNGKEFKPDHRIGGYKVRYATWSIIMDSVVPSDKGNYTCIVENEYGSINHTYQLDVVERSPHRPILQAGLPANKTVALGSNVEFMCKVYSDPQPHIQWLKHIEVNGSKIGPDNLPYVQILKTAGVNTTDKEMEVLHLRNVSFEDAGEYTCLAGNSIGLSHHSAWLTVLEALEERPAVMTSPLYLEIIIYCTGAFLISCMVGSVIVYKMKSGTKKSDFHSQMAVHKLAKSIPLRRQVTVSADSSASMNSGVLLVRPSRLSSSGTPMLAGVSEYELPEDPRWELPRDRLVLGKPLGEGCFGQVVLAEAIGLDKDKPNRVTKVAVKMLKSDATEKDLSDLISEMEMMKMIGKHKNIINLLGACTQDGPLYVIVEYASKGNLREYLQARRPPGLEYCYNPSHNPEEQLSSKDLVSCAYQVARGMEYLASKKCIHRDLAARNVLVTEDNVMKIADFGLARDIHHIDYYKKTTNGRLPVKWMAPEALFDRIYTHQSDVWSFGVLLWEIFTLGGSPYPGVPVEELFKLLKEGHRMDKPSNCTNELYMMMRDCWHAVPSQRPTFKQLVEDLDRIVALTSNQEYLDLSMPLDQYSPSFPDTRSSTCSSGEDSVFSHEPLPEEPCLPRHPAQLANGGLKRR
Grb2 SH2, sequence (P62993 whole entry, looked up): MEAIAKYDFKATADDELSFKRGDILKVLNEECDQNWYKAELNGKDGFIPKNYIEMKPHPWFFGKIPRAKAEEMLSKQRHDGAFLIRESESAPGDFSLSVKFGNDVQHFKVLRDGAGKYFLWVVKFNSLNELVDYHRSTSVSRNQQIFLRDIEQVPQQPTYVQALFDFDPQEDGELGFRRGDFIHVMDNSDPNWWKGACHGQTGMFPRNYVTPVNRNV
Fes, sequence (P07332 whole entry, looked up): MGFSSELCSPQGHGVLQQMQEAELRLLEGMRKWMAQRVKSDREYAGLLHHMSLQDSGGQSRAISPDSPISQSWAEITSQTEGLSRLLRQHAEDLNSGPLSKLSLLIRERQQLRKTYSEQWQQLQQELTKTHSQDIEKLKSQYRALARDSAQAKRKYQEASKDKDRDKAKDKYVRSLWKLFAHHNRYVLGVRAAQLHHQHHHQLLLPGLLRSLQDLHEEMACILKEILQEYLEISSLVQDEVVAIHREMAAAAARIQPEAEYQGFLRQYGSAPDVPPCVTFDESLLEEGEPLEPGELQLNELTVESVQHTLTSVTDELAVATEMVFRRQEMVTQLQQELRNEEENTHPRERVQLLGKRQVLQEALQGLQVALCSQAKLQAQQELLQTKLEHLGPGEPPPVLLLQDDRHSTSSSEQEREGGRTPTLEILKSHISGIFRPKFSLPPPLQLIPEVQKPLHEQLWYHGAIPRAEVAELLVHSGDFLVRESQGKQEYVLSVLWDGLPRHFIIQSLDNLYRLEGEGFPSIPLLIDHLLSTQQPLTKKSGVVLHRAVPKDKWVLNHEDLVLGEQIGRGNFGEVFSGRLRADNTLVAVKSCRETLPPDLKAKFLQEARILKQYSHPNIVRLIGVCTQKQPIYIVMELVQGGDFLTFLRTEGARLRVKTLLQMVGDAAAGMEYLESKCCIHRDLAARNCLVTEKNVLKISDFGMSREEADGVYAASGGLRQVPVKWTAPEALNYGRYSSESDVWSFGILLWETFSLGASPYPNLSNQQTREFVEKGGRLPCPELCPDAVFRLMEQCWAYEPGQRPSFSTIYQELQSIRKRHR
Fyn, sequence (P06241 whole entry, looked up): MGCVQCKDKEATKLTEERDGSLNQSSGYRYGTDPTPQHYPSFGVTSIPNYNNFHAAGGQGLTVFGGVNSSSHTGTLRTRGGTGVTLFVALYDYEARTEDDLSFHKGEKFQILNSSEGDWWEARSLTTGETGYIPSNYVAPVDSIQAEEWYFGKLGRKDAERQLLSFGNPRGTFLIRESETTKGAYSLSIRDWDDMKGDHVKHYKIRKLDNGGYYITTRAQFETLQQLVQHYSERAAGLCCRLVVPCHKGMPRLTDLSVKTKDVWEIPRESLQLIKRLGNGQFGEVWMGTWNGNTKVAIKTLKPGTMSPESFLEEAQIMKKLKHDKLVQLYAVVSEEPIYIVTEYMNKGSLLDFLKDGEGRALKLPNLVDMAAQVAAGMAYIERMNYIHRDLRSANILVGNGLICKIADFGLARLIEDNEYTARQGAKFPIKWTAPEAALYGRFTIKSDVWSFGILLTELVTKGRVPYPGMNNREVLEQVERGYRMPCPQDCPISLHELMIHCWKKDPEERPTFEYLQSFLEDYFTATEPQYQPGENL

Row | Sequence | SH2 binding enrichment (SHP2-C SH2) | SH2 binding enrichment (Grb2 SH2) | SH2 binding enrichment (c-Src SH2) | phosphorylation enrichment (Fyn) | phosphorylation enrichment (Fer (mouse)) | phosphorylation enrichment (MERTK) | phosphorylation enrichment (Hck) | phosphorylation enrichment (c-Src) | phosphorylation enrichment (FGFR3) | phosphorylation enrichment (EPHB2) | phosphorylation enrichment (FGFR1) | phosphorylation enrichment (AncSZ) | phosphorylation enrichment (Fes) | phosphorylation enrichment (EPHB1) | phosphorylation enrichment (Jak2) | phosphorylation enrichment (c-Abl (mouse))
1 | RRNTFYASIAK [ACADM_Y353_YF] | 1.68 | 0.772 | 1.09 | 0.482 | 0.367 | 0.474 | 0.463 | 0.638 | 0.583 | 0.455 | 0.442 | 0.605 | 0.622 | 0.453 | 0.511 | 0.509
2 | RSACTYLAPHL [PLK3_Y615_S618P] | 0.648 | 0.876 | 0.562 | 1.1 | 0.589 | 1.02 | 1.45 | 2.74 | 0.71 | 1.25 | 0.691 | 2.67 | 1.02 | 1.88 | 1.59 | 6.67
3 | RSACTYLASHL [PLK3_Y615] | 0.498 | 1.04 | 0.641 | 0.468 | 0.519 | 0.433 | 0.4 | 0.417 | 0.792 | 0.641 | 0.509 | 0.703 | 0.909 | 0.534 | 0.575 | 0.564
4 | RSAGKYDVFLI [MECP2_Y120_YF] | 0.677 | 1.03 | 0.914 | 0.556 | 0.618 | 0.561 | 0.714 | 0.533 | 0.748 | 0.563 | 0.352 | 0.558 | 0.758 | 0.697 | 0.775 | 0.85
5 | RSDEDYLCREE [POR_Y573_Y575C] | 0.749 | 0.947 | 0.595 | 0.716 | 0.951 | 0.785 | 0.769 | 0.765 | 1.27 | 0.737 | 0.623 | 1.54 | 2.34 | 0.747 | 1.34 | 1.01
6 | RSLLQYGGSAN [ANK1_Y624] | 0.716 | 0.749 | 0.482 | 0.537 | 0.8 | 0.439 | 0.813 | 0.459 | 0.772 | 0.717 | 0.574 | 0.964 | 0.857 | 0.709 | 0.626 | 1.01
7 | RSPLRYTSILT [OR51B6_Y130] | 3.94 | 1.67 | 2.87 | 0.64 | 0.492 | 0.392 | 0.443 | 0.392 | 0.431 | 0.532 | 0.536 | 0.679 | 0.843 | 0.426 | 0.655 | 0.632
8 | RSRQIYDAYIM [GRK3_Y109] | 0.727 | 0.822 | 0.683 | 15.2 | 14.6 | 8.17 | 10.4 | 11 | 0.8 | 6.14 | 0.511 | 0.914 | 0.807 | 3 | 1.15 | 6.11
9 | RSRSSYTHGLN [MYCT1_Y116] | 0.917 | 0.779 | 0.593 | 0.956 | 0.705 | 0.883 | 0.935 | 1.23 | 0.88 | 0.882 | 0.588 | 1.42 | 1.35 | 1 | 0.916 | 0.981
10 | RSSGPYGGGGQ [HNRNPA1_Y341] | 0.623 | 0.961 | 0.606 | 0.715 | 0.518 | 0.625 | 0.616 | 0.56 | 0.441 | 0.485 | 0.589 | 0.811 | 0.686 | 0.466 | 0.485 | 0.643
11 | RSSKMYFKTRS [LPL_Y329_L330F] | 0.747 | 0.884 | 0.459 | 0.667 | 0.764 | 0.712 | 0.634 | 0.856 | 0.561 | 0.567 | 0.701 | 1.2 | 1.22 | 0.685 | 0.989 | 1.07
12 | SEKISYVYMKR [SSX7_Y48_L43S] | 3.87 | 1.15 | 0.993 | 0.469 | 0.387 | 0.385 | 0.479 | 0.444 | 0.748 | 0.504 | 0.6 | 0.912 | 0.967 | 0.553 | 0.964 | 0.538
13 | SELVCYDARVH [MET_Y971_R970C] | 0.739 | 0.874 | 0.561 | 0.603 | 0.49 | 0.496 | 0.816 | 0.482 | 0.679 | 0.673 | 0.547 | 1.07 | 1.14 | 0.592 | 0.867 | 0.721
14 | SEQNNYSRVAN [CWC22_Y797_R794Q] | 3.97 | 0.784 | 1.66 | 0.458 | 0.497 | 0.4 | 0.458 | 0.35 | 0.437 | 0.878 | 0.43 | 0.705 | 0.534 | 1.14 | 0.535 | 0.447
15 | SETSRYLSELF [KCNJ3_Y67_D70E] | 0.774 | 0.883 | 0.588 | 0.397 | 0.376 | 0.382 | 0.464 | 0.346 | 0.537 | 0.498 | 0.509 | 1.07 | 0.882 | 0.467 | 0.783 | 0.535
16 | SFCFRYCCAAR [SUMF1_Y344_R345C_YF] | 0.764 | 1.02 | 0.755 | 0.487 | 0.517 | 0.445 | 0.436 | 0.397 | 0.723 | 0.611 | 0.504 | 1.25 | 1.23 | 0.659 | 1.02 | 0.7
